From publication PMC8257661

B1: Junin virus (JUNV) Z protein (natural protein)
chain: MGNCNGASKSNQPDSSRVTQPAAEFRRVAHSSLYGRYNCKCCWFADTNLITCNDHYLCLRCHQVMLRNSDLCNICWKPLPTTITVPVEPTAPPP

molecular target: Junin virus (JUNV) L protein (Junin virus (JUNV)); assay: MST; […] (20–[…]); […]; 50 mM HEPES pH 7.8, 500 mM NaCl, 1 mM TCEP; […]

With Z (AA 18–47) peptide of JUNV Z protein as the molecule, how does the Kd read?
Its Kd is 863 nM.

With Z (AA 48–78) peptide of JUNV Z protein as the molecule, how does the Kd read?
The Kd was 1150 nM.

Which Kd does the source give for B1 here?
The Kd was 393 nM.
